This note sets out measurements from the DeepSol protein solubility set.

This data set is described as follows: soluble on expression in E. coli; label from the status in PepcDB or PDB records.
As to “MDDHGRTPSTNQPILYVLDTNVLIHDPNALLNFEEHHVAIPMTVLEELDKLKAGKHSVAAECRQAIRLIDKTLGEASPEEVEKGVPIDRGTGVFKGFLSILMSKREEPNSLLPEHLNDNIIINQLIDLHARNKDLSVVLVTKDINMRLKARACGIDAEDYSTDQLVDDVSLLSRGYHDMTGSFWDRVNKVDTRQERGRTWHRVQLNEMLPAVHINEFIVDEQGFVGWIKGVKNDELLILDMHQEPLLHQEAWGLKPRDIYQGLALFALLDPDIHLVNLSGPAGSGKTILALAAAIEQTMVTKRYRRIIATRSVQGLDQEIGFLPGTEAEKMEPWLGAITDNLEALHMDDENTHGSVDYILSKVPLQFKSLNYIRGRSFQQSLILIDECQNLTPHQMKTIITRAGAGSKVVCLGNLAQIDTPYLSATSSGLTYLTERFKDFPNGVHLTLQGVPRSILAEYAESHL”, the “soluble on expression in E. coli” value was “soluble”.

Consider “MDDITDGLRYRISNVIHVSPELTYDGRIMSAGKLLKLMDDLGGIICLRYLDHNSSNLYDNSFNAVVTVAVKGLAFYSPIRLNDIILIRAGLVYVGNTSADILINVVREDLNGAKEHVATAYFTYVRVDKDGKPIKIP”, for which the “soluble on expression in E. coli” value was “soluble”.

Regarding “MDDLMKDRIDLLIDYIMKHCLWQFHSRSWDRKRQNEGILTKTTQLLCDEPVDLGTPADKCYWVDAVCLADAYKSRYPWLKTMDKDDIKALMGALHERLDHLTITGSLNLELTDQHYLEHHHHHH”, the “soluble on expression in E. coli” value is recorded as “soluble”.

“MDEEMLIPEEEYQKSGVHIGTQVKSSDMKPYIFKIRNDGLYILDVKKTNSKLIVAGKMLARFEPQDILVVAQRQYAFRPVAKFAEVTGATAITGRFNPGTLTNPSLKFYKEVKVIIVTDPLADVQAMKEAVKIGIPIIALCDANNKTDFVDLIIPTNNKGRRSLAVIYWLLAREILKNRGTITSYDQFKYTIDDFEAQI”: the “soluble on expression in E. coli” value is on record as “not soluble”.

Regarding “MDESMRHDIALFRYGLIAPLVNGQVEPKAYLNEVGGRVHSIPHQGDKPIAAKTILDWCARYKKGGFDALKPKRRSDRGRSRRLSPDDEDHILALRKEHPTMPVTLFYEQLTKQGDIPTTLSYFTIYRLLKKHNLVGKEILPMPERKRFAYDQINELWQGDLSHGPTIRVHGKAQKTFLIAYIDDCSRLVPYAQFFPSEKFDGLRIVTKEAVLRCGKPKRIYSDNGKIYRSEVLQYACAEMGITLIHTQPYDPQSKGKIERFFRTVQTRFYPLLELNPPKSLDELNERFWKWLEEEYHRKPHASLDGKTPHEVFQSQVERVVWIEDIDWLDAIFLKREHRKVKADGTITLNKQLYEVPPRFIGQSIELRYDERGVYVYEDGKRVAEAIRVRLEDNAYVKRHRSPFAAVSAKEGEQDV”, the “soluble on expression in E. coli” value is given as “not soluble”.

For the sequence “MDFDNFPIEQLSHLISFDIEWTETSVADAIKIKDIILRSPHFESASILSHCVNKIKPEVLKVFHPNYIATDRDYNEMLELRNDYFRSIVYAGGSSIDIYNVNLEDPDDFE”, the “soluble on expression in E. coli” value is “not soluble”.

For the sequence “MDFKAKLLAEMAKKRKAVSGMEVKEGNAKFVKGADLEMKRNQEYERKQQEIASKKRKVDDEILQESSSRTKPAPVENESEIDEKTPMSEIQTRLRQRNHPIMLFGETDIDVRKRLHQLELAQPDLNEGWENELQTAMKVIGKEMDKAVVEGTADSATRHDIALPQGYEEDNWKNIEHNSTLLSVDDDLKRDCDIILSICRYILARWAKDLNDRPLDVKKTAQGMHEAAHHKQTMMHLKSLMTSMERYNCNNDIRHHLAKICRLLVIDRNYLEANNAYMEMAIGNAPWPVGVTRSGIHQRPGSAKSYVSNIAHVLNDETQRKYIQAFKRLMTKMQEYFPTDPSKSVEFVKKAV”, the “soluble on expression in E. coli” value was “not soluble”.

“MDFSLTEEQELLLASIRELITTNFPEEYFRTCDQNGTYPREFMRALADNGISMLGVPEEFGGIPADYVTQMLALMEVSKCGAPAFLITNGQCIHSMRRFGSAEQLRKTAESTLETGDPAYALALTEPGAGSDNNSATTTYTRKNGKVYINGQKTFITGAKEYPYMLVLARDPQPKDPKKAFTLWWVDSSKPGIKINPLHKIGWHMLSTCEVYLDNVEVEESDMVGEEGMGFLNVMYNFEMERLINAARSTGFAECAFEDAARYANQRIAFGKPIGHNQMIQEKLALMAIKIDNMRNMVLKVAWQADQHQSLRTSAALAKLYCARTAMEVIDDAIQIMGGLGYTDEARVSRFWRDVRCERIGGGTDEIMIYVAGRQILKDYQNK”: the “soluble on expression in E. coli” value is “soluble”.

For “MDGSVVRHEERLNVGKERVESGRMRIRKHVVHDTETVEVPVEREEIHVERVPLDEKVAADDAKLSEGTQDIVTHEERPVVNKETVGVEKIKIGKEAVQDTETVSGKVAKEQIDIDNAKHTKLEHHHHHH”, the “soluble on expression in E. coli” value is listed as “not soluble”.

Turning to “MDHIELRKKIGQAIRTARIRRGLVMRDLAEAGGVSTGAVGNWERGANAIAMEHLQAISQKLRIDPVALSNGSLRYLDEEEALADAEQVTDFGPAPTGPMDVEVLGVAVGGDDGDFTLNGEVSGYVRRPPGIAHLRKVFALHVLSDSMIPRYDPGELIYVGGREAVAGDHVVIEMFPDEGATVGKAYVKKLKGRTKGAIVCEQYNPPKELQFDQYAIKNMWRIIPLRELLGY”, the “soluble on expression in E. coli” value is “not soluble”.

As to “MDHLKHLQQLQNIERIVLSGIVLANHKIEEVHSVLEPSDFYYPPNGLFFEIALKLHEEDCPIDENFIRQKMPKDKQIKEEDLVAIFAASPIDNIEAYVEEIKNASIKRKLFGLANTIREQAHH”, the “soluble on expression in E. coli” value is given as “soluble”.

Turning to “MDICDISASQLATSPPPRTAIDFNSSIEESPVKRVKFSPELTKSFEETLSPTVTLVLRNNEEVIFDRYLLSFYSNYFRVLFSSKFRDSNSTTHRIRLISASDLHFLLTIPKAFEQGIKPNITLQKAIELLEPAAFLQMSIALDYISDIICKNLTHENIIKIFRLALLYHTTLAVRVWRSMVRKFQTLFATNVYLSLKENELIGLLTDKHLNLKSEDETTVVVNWIKHNSPLQSDRLTQFAQRNFSRRPQPDATKYEVIRTRQPMDAIVCFGGWASRGVAQKIEVCNTRSDRWQTCNFNYDIPNIHRAYHGIEVVEDKLIVYGGFDGIKQFQTTVLFDLSTKEWRRGANMNDKRCYVTSARVNDSYGRPLVFACGGMNGVSRLKTAEMYDYRADQWTEVANMTQMRSDGAVVTIDNKIVAIGGFDGRNIHQGGEVYDPVLDLWHPLSSNMRTRRTGCTAVSIMNQVCMIIGGFNGNRRLDSAEIYDMREGLWHPEPTLQTARSNFSACQMDTCYVYVAGGFDGQTTTKESERLDLRSKMWQALPDMAEAKSALRMVTLSDHPFLDELFDIPDDTGIVTSW”, the “soluble on expression in E. coli” value is “not soluble”.

Regarding “MDIHVLSYGLGNQLSQYAFFINRRQLMQRAYAFYAFKQHNGYELDRIFGLKEGLPWYLQFVRVVFRLGISRRFYSKRTADFVLSLFRIKVIDEAYNYEFDPSLLKPWFGIRILYGGWHDSRYFHPSEAAVRTAFSFPPLDDVNDAILQQIDAVYGVSIHVRRGDYLKGINSNLFGGIATLEYYRNAIGWAITYCKHRSLEIKFYVFSDDIDWCKQNLGLRDAVYVSGNSKTDSWKDILLMSHCRANIIANSTFSWWAAWLNQQPNKVVICPTKFINTDSPNQTIYPAAWHQIEGLEHHHHHH”, the “soluble on expression in E. coli” value is “not soluble”.

Take “MDIKHEMIYREDDVLLVKSEPQLHSPCATGSNGLPAGAGSNLLCASNGLVTTLASGSSLNGLTNNVPSNGLSSSGPFSSIGGGVSASKRQRTDDWLSSPSGNVPPLTPSPGPPSHPYTVISNGYSSPMSSGSYDPYSPNGKIGREDLSPSSLNGYSADSCDSKKKKGPTPRQQEELCLVCGDRASGYHYNALTCEGCKGFFRRSITKNAVYQCKYGNNCEIDMYMRRKCQECRLKKCLSVGMRPECVVPEVQCAVKRKEKKAQKEKDKPNSSTNGSPDVIKVEPELSDSEKTLCNGSKGISPEQEELIHRLVYFQNEYEHPSEEDVKRIINQPMDGEDQCDVRFRHITEITILTVQLIVEFAKRLPGFDKLLREDQIALLKACSSEVMMFRMARRYDVQTDSILFVNNQPYSRDSYNLAGMGETIEDLLHFCRTMYSMRVDNAEYALLTAIVIFSERPALIEGWKVEKIQEIYLEALRAYVDNRRKPKPGTIFAKLLSVLTELRTLGNQNSEMCFSLKLKNKKLPPFLAEIWDVDLKT”: the “soluble on expression in E. coli” value is “soluble”.

In the case of “MDILKLSDFIGNTLIVSLTEDRILVGSLVAVDAQMNLLLDHVEERMGSSSRMMGLVSVPRRSVKTIMIDKPVLQELTANKVELMANIV”, the “soluble on expression in E. coli” value is on record as “not soluble”.

Take “MDILKQLQSSTNLTPNVLARLAIALSLLSKEPIESFDSDTNGLEFNRNTLTGEYDFVYKALIAQQLGRPITDDEYFPSLIKKHLDRGAKWLENEYKYAGNYEKLIKGLAHFELEMIR”: the “soluble on expression in E. coli” value is given as “not soluble”.

Turning to “MDILLMDTIQQEVLALFREEIPGYLDSNWKEIPLELDSDLFEAPGDDLHEALDKFEKKFNVDLSQVKWSCYFPWENTPLLTRWFKLKREDVERTRKPLTIRMFSESAKAGKWLYD”, the “soluble on expression in E. coli” value was “not soluble”.

In the case of “MDITELLAFSAKQGASDLHLSAGLPPMIRVDGDVRRINLPPLEHKQVHALIYDIMNDKQRKDFEEFLETDFSFEVPGVARFRVNAFNQNRGAGAVFRTIPSKVLTMEELGMGEVFKRVSDVPRGLVLVTGPTGSGKSTTLAAMLDYLNNTKYHHILTIEDPIEFVHESKKCLVNQREVHRDTLGFSEALRSALREDPDIILVGEMRDLETIRLALTAAETGHLVFGTLHTTSAAKTIDRVVDVFPAEEKAMVRSMLSESLQSVISQTLIKKIGGGRVAAHEIMIGTPAIRNLIREDKVAQMYSAIQTGGSLGMQTLDMCLKGLVAKGLISRENAREKAKIPENFGAAALEHHHHHH”, the “soluble on expression in E. coli” value is recorded as “soluble”.

Take MDIYVCTVCGYEYDPAFEDLPDDWACPVCGASKDAFEKQ: the “soluble on expression in E. coli” value was “soluble”.

Take “MDKDMQLIRGLHNANRVLQGCALTIGNFDGVHLGHQTVLRHLRQKADELNLPMAVLLFESQPREYFMGKNAPARLMRLRDKIYYLEKAKVDVVIVAKFDRTFAEQLADVFIEQTLVNHLHVKFLSIGDDFKFGSKRQGNFAMLQAASKRFGFIVEDNRSFCLDAQRISSTAIREALANDDLQLAENLLGKPYRIFGRVIHGNKLGRTIGFPTANIRLHRQVNPIKGVYAVKVRLKSGEIFNGVANMGKRPTINGLMQLLEVHLFDFSQNIYGQMVEVEFCHKIRNEIKFPSFDDLKVQIEKDVETAKAFFNSLEHHHHHH”: the “soluble on expression in E. coli” value is reported as “not soluble”.

Turning to “MDKIEVRGARTHNLKNINLVIPRDKLIVVTGLSGSGKSSLAFDTLYAEGQRRYVESLSAYARQFLSLMEKPDVDHIEGLSPAISIEQKSTSHNPRSTVGTITEIHDYLRLLFARVGEPRCPDHDVPLAAQTVSQMVDNVLSQPEGKRLMLLAPIIKERKGEHTKTLENLASQGYIRARIDGEVCDLSDPPKLELQKKHTIEVVVDRFKVRDDLTQRLAESFETALELSGGTAVVADMDDPKAEELLFSANFACPICGYSMRELEPRLFSFNNPAGACPTCDGLGVQQYFDPDRVIQNPELSLAGGAIRGWDRRNFYYFQMLKSLADHYKFDVEAPWGSLSANVHKVVLYGSGKENIEFKYMNDRGDTSIRRHPFEGVLHNMERRYKETESSAVREELAKFISNRPCASCEGTRLRREARHVYVENTPLPAISDMSIGHAMEFFNNLKLAGQRAKIAEKILKEIGDRLKFLVNVGLNYLTLSRSAETLSGGEAQRIRLASQIGAGLVGVMYVLDEPSIGLHQRDNERLLGTLIHLRDLGNTVIVVEHDEDAIRAADHVIDIGPGAGVHGGEVVAEGPLEAIMAVPESLTGQYMSGKRKIEVPKKRVPANPEKVLKLTGARGNNLKDVTLTLPVGLFTCITGVSGSGKSTLINDTLFPIAQRQLNGATIAEPAPYRDIQGLEHFDKVIDIDQSPIGRTPRSNPATYTGVFTPVRELFAGVPESRARGYTPGRFSFNVRGGRCEACQGDGVIKVEMHFLPDIYVPCDQCKGKRYNRETLEIKYKGKTIHEVLDMTIEEAREFFDAVPALARKLQTLMDVGLTYIRLGQSATTLSGGEAQRVKLARELSKRGTGQTLYILDEPTTGLHFADIQQLLDVLHKLRDQGNTIVVIEHNLDVIKTADWIVDLGPEGGSGGGEILVSGTPETVAECEASHTARFLKPML”, the “soluble on expression in E. coli” value is on record as “soluble”.
